In US20200234789A1, “DESIGNED PROTEINS FOR LIGAND BINDING” (THE REGENTS OF THE UNIVERSITY OF CALIFORNIA, priority 2017, published 2020):

Tests used:
[1] = Binding of endogenous heme on expression in E. coli (absorption spectra); assay type: cell-based; settings: expressed in E. coli, Soret and Q bands at 410 and 550 nm
Protocol: FIGS. 18A-18B. enFold proteins are capable of noncovalently binding endogenous ligands in the cell. […] Inset: E. coli cultures of after induction). FIG. 18B: Denovo proteins from binary sequence patterning. Previous studies have only been able to incorporate heme exogenously, i.e. after expression and purification, heme is added to the purified apo-protein. See Patel et al, Protein Science, 18:1388-1400.
The computational method described here is capable of producing proteins that noncovalently bind ligands in vivo. We have observed loading of endogenous heme in a PS1 variant, where 7 terminal residues near the binding ligand site were deleted to allow incorporation of a heme ligand with its bulky, charged proprionate functional groups (FIG. 16). […] These apo-proteins remain competent to bind an endogenous ligand, for example heme (FIG. 17 and FIGS. 18A-18B). These proteins are the first de novo designed proteins to our knowledge that noncovalently bind heme in vivo.

[2] = Porphyrin binding to apo-protein, electronic absorption spectra ((CF3)4PZn loading)
Protocol: FIGS. 3A-3D. Biophysical characterization of apo- and holo-PS1. FIG. 3A: Electronic absorption and emission spectra of (CF3)4PZn/PS1 holo-protein and (CF3)4PZn in toluene solvent. […] FIG. 3B: Determination of KD by apo-PS1 titration into a buffer solution (100 mM NaCl, 50 mM NaPi, pH 7.5) of (CF3)4PZn with 1% w/v octyl-b-D-glucopyranoside. […] FIG. 3C: Circular dichroism (CD) spectra of apo- and holo-PS1 in 50 mM NaPi, 100 mM NaCl, pH 7.5 as a function of temperature. The transitions appear reversible based on the fact that the spectra are identical after cooling to room temperature. Units are in molar residue ellipticity. […] FIG. 3D: Pump-probe transient absorption spectra of (CF3)4PZn bound in the interior of holo-PS1 at 21° C. and 100° C. […] Inset exemplifies identical transient dynamics (primarily intersystem crossing from S1 to T1) at ΔAbs.=482 nm (scaled). Experimental conditions: solvent=50 mM NaPi, 100 mM NaCl, pH 7.5; excitation wavelength=600±5 nm; magic-angle polarization between pump and probe pulses; pump-probe cross-correlation of ˜250 fs.
FIG. 10. Absorption spectra of (CF3)4PZn/PS1 and (CF3)4PZn/PS2 complexes. […] Experimental conditions: buffer=100 mM NaCl, 50 mM NaPi, pH 7.5.
A 2-fold excess of the cofactor (CF3)4PZn was added from a 4 mM DMSO stock solution to a 50 mM NaPi, 100 mM NaCl, pH 7.5 buffer with apo-protein (Note that final DMSO concentrations were kept <1%.). Buffer solution of apo-PS1 protein was heated for 5 minutes at 50° C., (CF3)4PZn was then added from the DMSO stock solution, the resultant mixture was vortexed for 5 seconds, and placed back in the heat block at 50° C. for 15 minutes, with vortexing every 3 minutes. The protein/cofactor solution was then spun at 14000×g in a Amicon Ultra-0.5 mL centrifuge filter for 10 min, three times, replacing the buffer to 0.5 mL after each 10 min spin. Finally, the protein solution was spun for 4 min at 12000×g in an Amicon ultrafree-MC GV filter (UFC30GV0S). The holo-PS1 sample was then used for spectroscopic experiments immediately afterward, and diluted to an appropriate concentration if necessary. Binding of (CF3)4PFe was carried out in the same fashion, with the exception that the porphyrin was first dissolved in a stock of DMSO/CHCl3.
Electronic absorption spectra were collected using a Shimadzu UV-1700 UV-Vis spectrophotometer or Cary 5000 spectrophotometer. Steady-state emission spectra were obtained on FLS920P spectrophotometer (Edinburgh Instruments Ltd. Livingston, UK) in 1 cm quartz optical cells. The steady-state emission spectra were corrected using the correction factor generated by the manufacturer.

B1: PS1 D103-109: PS1 variant with 7 terminal residues near the ligand binding site deleted, SEQ ID NO:8 (protein)
chain: EFEKLRQTGDELVQAFQRLREIFDKGDDDSLEQVLEEIEELIQKHRQLFDNRQEAADTEAAKQGDQWVQLFQRFREAIDKGDKDSLEQLLEELEQALQKIR
[1]
  binding / loading of endogenous heme: high loading of endogenous heme
[1]; listed as PS1 deletion variant
  binding / loading of endogenous heme: binds endogenous heme

B2: PS2: second designed porphyrin-binding protein with redesigned core (Ser94, Trp68), SEQ ID NO:7 (protein)
chain: SEFEKLRQTGDEIIQLLQRLREAIDKGDDDSLEQILEELEEAFQKHRQLFENRQEAADTEFAKQGDQWLQLFQRIREAIDKGDKDSLEQLFEESEQGIQKIRELAEKKN
[2]; (CF3)4PZn, based on absorbance at 280 nm and 423 nm, 100 mM NaCl, 50 mM NaPi, pH 7.5
  porphyrin loading: 100%
[2]; narrow electronic absorption bands of the porphyrin
  binding of (CF3)4PZn: bound (CF3)4PZn in a homogenous environment
